Test results reported in the supplement of paper PMC10567573.
± gives the standard deviation.

Experiment: protein stability index of a GFP-peptide fusion (GPS, HEK-293T) (PSI 1-6); higher = more stable
[1] = treatment: DMSO, c terminus: a fixed tail appended
[2] = treatment: MLN4924 1 uM, 8 h, c terminus: a fixed tail appended
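Also: 24-mer peptide tiles fused after GFP, lentivirally expressed, FACS-sorted into six equal bins by GFP/DsRed ratio, decoded by Illumina sequencing, PSI is the read-weighted mean bin number.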

Row | Sequence | protein stability index [1] | protein stability index [2] | protein stability index (treatment: DMSO, c terminus: native) | protein stability index (treatment: MLN4924 1 uM, 8 h, c terminus: native)
1 | AAAALFGGKKDKARYIDTHNRVSK [PLK2] | 3.37 ± 0.22 | 3.14 ± 0.39 | – | –
2 | AACLLQLDGLIQQCGETMKETVNV [GMCL1] | 3.14 ± 0.24 | 3.07 ± 0.25 | – | –
3 | AAFPNLANLSRTQLLHLGLTQGLI [KLHDC10] | 2.58 ± 0.3 | 2.27 ± 0.2 | – | –
4 | AAGSPRSPGPLPGARGLHLPDAGS [ISL2] | 4.6 ± 0.35 | 4.72 ± 0.16 | – | –
5 | AAHAVVLCALPVHVAVEHQLPPAS [SOAT2] | 2.16 ± 0.32 | 2.52 ± 0.39 | – | –
6 | AALNAHSDCCRKLLSSGFEIDTPD [ANKRD44] | 3.61 ± 0.24 | 3.59 ± 0.42 | – | –
7 | AAMLRGQSDVGVAVFENKIYVVGG [KLHL13] | 2.07 ± 0.12 | 2.46 ± 0.55 | – | –
8 | AARALDKNKIPYKGFIPEDLEAFI [FEM1A] | 2.96 ± 0.29 | 3.42 ± 0.41 | – | –
9 | AATLLLALLSCCLTVVSFYQVAAL [TNFSF13B] | 3.24 ± 0.23 | 3.31 ± 0.32 | – | –
10 | AAWGARVFSFGKHYWELDVDNSCD [TRIM43] | 2.25 ± 0.44 | 2.28 ± 0.3 | – | –
11 | ACDSKLTFDAITTIRGEVMFFKDR [MMP1] | 2.45 ± 0.24 | 2.83 ± 0.19 | – | –
12 | ACGGGHLLPYFYIIYMAILLTHRC [DHCR7] | 2.8 ± 0.18 | 3.07 ± 0.19 | – | –
13 | ACGIVSGKYDSGIPPYSRASLKGY [KCNAB2] | 2.35 ± 0.21 | 2.2 ± 0.12 | – | –
14 | ACGSSSYVASIVDGGESRSEKGDS [RBMY1A1] | 5.22 ± 0.31 | 5.16 ± 0.35 | – | –
15 | ACIVVLDRTSHRLHTANLGDSGFL [PPTC7] | 2.68 ± 0.48 | 2.24 ± 0.43 | – | –
16 | ADLENEDIFPELDDILYHVKGMQR [DLC1] | 3.7 ± 0.13 | 3.72 ± 0.34 | – | –
17 | AEHMKRQRHPRLRPQSAQSSFPPS [AUP1] | 4.13 ± 0.12 | 4.43 ± 0.25 | – | –
18 | AEHQFSFMEKRNQWLVSQLSAASP [TRAF3IP2] | 3.02 ± 0.39 | 3.23 ± 0.37 | – | –
19 | AEKETELSLQKEQLQLKIIEIEDE [TRIM29] | 5.42 ± 0.26 | 5.45 ± 0.26 | – | –
20 | AFAEMLRFGDRMFYKDWWNSTSYS [SOAT1] | 2.52 ± 0.36 | 2.58 ± 0.54 | – | –
21 | AFEPEALGNLVEGLDFHRFYFENL [CAMK2A] | 2.51 ± 0.18 | 2.61 ± 0.3 | – | –
22 | AFWSLVTLGSSFIPGEHFWLLLLT [SPNS1] | 2.85 ± 1.5 | 2.91 ± 1.1 | – | –
23 | AGADLKERAKMSSSEVGPFVSKIR [AUH] | 3.21 ± 0.21 | 4.069 ± 0.006 | – | –

Row | Sequence | protein stability index [1] | protein stability index [2] | protein stability index (treatment: DMSO, c terminus: native) | protein stability index (treatment: MLN4924 1 uM, 8 h, c terminus: native)
24 | AGGDATENFEDVGHSTDAREMSKT [CYB5A] | 5.44 ± 0.28 | 5.3 ± 0.15 | – | –
25 | AGIREAKAKQEKVSAQYLSEIEMA [FLOT1] | 4.63 ± 0.33 | 4.75 ± 0.14 | – | –
26 | AGLAPPSLFARAMQVLVTAISPGR [ANKRD9] | 2.29 ± 0.1 | 2.29 ± 0.18 | – | –
27 | AGPDSWGSDAEQSTSGQPYPTSDQ [LCOR] | 5.48 ± 0.23 | 5.4 ± 0.13 | – | –
28 | AIIRTPPKSPATPKQLRLINQPLP [MAP2] | 3.13 ± 0.19 | 3.15 ± 0.21 | – | –
29 | AINNLVLQGCSSIGLRLVLEYLYT [KLHL14] | 3.15 ± 0.55 | 3.04 ± 0.31 | – | –
30 | AKAELPKYKSFNRTAMPYGGYEKA [MYOZ1] | 3.22 ± 0.23 | 3.41 ± 0.24 | – | –
31 | AKEKLESFIKNSDSFDKFEFCEPA [PCMTD1] | 4.06 ± 0.27 | 3.96 ± 0.31 | – | –
32 | AKLAADDFRTKYETELSLRQLVEA [KRT36] | 3.73 ± 0.33 | 3.78 ± 0.061 | – | –
33 | AKRCTVIGGSGFLGQHMVEQLLAR [NSDHL] | 2.1 ± 0.2 | 2.21 ± 0.41 | – | –
34 | ALDLAREFLPQGPVAMRVAKLAIN [AUH] | 2.89 ± 0.18 | 2.83 ± 0.25 | – | –
35 | ALERRRRALQEEERAAAQARRELQ [ZBED3] | 5.18 ± 0.12 | 4.86 ± 0.19 | – | –
36 | ALLEGEKALWEDKTSLWEEENALW [CCDC70] | 3.41 ± 0.27 | 3.73 ± 0.33 | – | –
37 | ALSDAEFEGEGDYEEGMYADWWQE [P3H4] | 4.97 ± 0.23 | 5.15 ± 0.17 | – | –
38 | ALTGPVVDIVTGHARLSDIWAKTP [DHCR7] | 2.63 ± 0.21 | 2.71 ± 0.17 | – | –
39 | AMKITQEPQGLGYWEAWRHHCQGK [SPACA3] | 3.05 ± 0.18 | 3.17 ± 0.29 | – | –
40 | APGYDPETVTVTVGPAEPTLVNFH [CPN1] | 3.89 ± 0.32 | 3.99 ± 0.35 | – | –
41 | APLIQPCHSESGKSRLVQLPPVAV [PCMTD2] | 3.13 ± 0.21 | 3.29 ± 0.38 | – | –
42 | APPQGSCGDELPWTLQRRLTRLRT [PLEKHN1] | 3.33 ± 0.26 | 3.51 ± 0.44 | – | –
43 | APPSTRTSHSLPESSVPSTVGCSS [PLEKHN1] | 4.94 ± 0.45 | 5.23 ± 0.18 | – | –
44 | AQLRLQLEVSQLEGSLQQPKAQSA [SMG5] | 3.66 ± 0.24 | 3.7 ± 0.28 | – | –
45 | AQQLEEEGPMEEEEAQPMAAPEGK [EID1] | 5.68 ± 0.29 | 5.53 ± 0.35 | – | –
46 | AQVDGAAMFAADPKKPIGGNIIAH [RAD51] | 4.23 ± 0.18 | 4.36 ± 0.17 | – | –

Row | Sequence | protein stability index [1] | protein stability index [2] | protein stability index (treatment: DMSO, c terminus: native) | protein stability index (treatment: MLN4924 1 uM, 8 h, c terminus: native)
47 | ARVKPPEGYDVVAVYPNAKVELV [PDLIM4] | – | – | 3.52 ± 0.35 | 3.65 ± 0.22
48 | ARYYLVQGLIEDCQLALQQKRETL [KCTD13] | 2.11 ± 0.19 | 2.19 ± 0.24 | – | –
49 | ASDLSSEEGWRLFKIDKEYLLKMA [SAT1] | 2.42 ± 0.17 | 2.6 ± 0.33 | – | –
50 | ASEAFHWDERGRAAAYSPSEALLY [ANKRD9] | 3.37 ± 0.21 | 3.4 ± 0.4 | – | –
51 | ASLGLTQTQVKIWFQNKRSKFKKL [DLX1] | 2.37 ± 0.19 | 2.61 ± 0.47 | – | –
52 | ASSLPAEVHSLTLSPPEQAAQPMQ [PLAGL1] | 5.07 ± 0.12 | 4.89 ± 0.26 | – | –
53 | ATECEFVGSLPVIVVGRLKVALEP [LPCAT4] | 2.36 ± 0.56 | 2.36 ± 0.59 | – | –
54 | ATETQALAQRTQQDSTRTVGERLQ [TEKT4] | 5.14 ± 0.43 | 5.43 ± 0.15 | – | –
55 | ATKPSHWCSVAYWEHRTRVGRLYA [SMAD6] | 2.62 ± 0.55 | 1.91 ± 0.17 | – | –
56 | ATVPSNMMSVNGQAKTHTDSSEKE [ACBD3] | 5.35 ± 0.23 | 5.45 ± 0.19 | – | –
57 | AVETRLSLLNMTFMKYVDSNLCCF [FBXO28] | 2.99 ± 1.8 | 2.57 ± 1.3 | – | –
58 | AVGDRQDGLREQLQAPVPPDSVPS [PBXIP1] | 5.33 ± 0.37 | 5.37 ± 0.18 | – | –
59 | AVLDCLLDFLPKDVKKEKLSPDIM [TENT5D] | 2.99 ± 0.65 | 2.63 ± 0.52 | – | –
60 | CASKYGRDWERYTAAVPYRLLPGI [DHCR7] | 2.05 ± 0.24 | 2.2 ± 0.21 | – | –
61 | CEALINRVSAMRDYRGPDCRYLNF [MIA2] | 2.3 ± 0.33 | 2.53 ± 0.14 | – | –
62 | CESCVDLLFVRGAGNCPECGTPLR [MNAT1] | 4.27 ± 0.32 | 4.51 ± 0.17 | – | –
63 | CESLTYGLPFILRPTSCWQLDWDE [M1AP] | 2.25 ± 0.15 | 2.04 ± 0.3 | – | –
64 | CEVWACNLDEEMKKIRQVIRKYNY [CNOT7] | 2.28 ± 0.19 | 2.23 ± 0.14 | – | –
65 | CFVKDNPQKSYFIRLYGLQAGRLL [WAS] | 2.49 ± 0.58 | 2.22 ± 0.45 | – | –
66 | CGFTVAQIITSLVFHLPFYSSNQL [OR10K2] | 3.15 ± 0.51 | 2.95 ± 0.41 | – | –
67 | CGGYNGEVILGDIWKLNLQTFQWV [KLHDC10] | 2.44 ± 0.85 | 2.11 ± 0.71 | – | –
68 | CNDGRIVIWDFLTRGIAKIISAHI [RBBP5] | 3.03 ± 0.42 | 2.66 ± 0.41 | – | –
69 | CPCCFGRDCLVLNQGYLSEAGASL [PI4K2A] | 2.44 ± 0.2 | 2.62 ± 0.49 | – | –

Row | Sequence | protein stability index [1] | protein stability index [2] | protein stability index (treatment: DMSO, c terminus: native) | protein stability index (treatment: MLN4924 1 uM, 8 h, c terminus: native)
70 | CQDQNVPVENFFVKCNGALINTSD [SDE2] | 3.3 ± 0.23 | 3.27 ± 0.47 | – | –
71 | CQFRPPVRVNDGGGSHPSRPNSRH [VDR] | 4.55 ± 0.34 | 4.77 ± 0.076 | – | –
72 | CQGQPQGKAVVSHSKGHKSSRQEK [ELOA2] | 5.38 ± 0.22 | 5.37 ± 0.1 | – | –
73 | CQVGGIEALVRTVLRAGDREDITE [CTNNB1] | 3.28 ± 0.46 | 3.21 ± 0.46 | – | –
74 | CREPSPKMDFKTNILLKNLVTIAR [TRIM43] | 2.8 ± 0.59 | 2.35 ± 0.49 | – | –
75 | CSIGFAVRYLNAYTGIVLLRCRKE [POP5] | 3.13 ± 0.43 | 2.99 ± 0.57 | – | –
76 | CSNLVKTRRRAVGWWKRLFTLKEE [ARL6IP1] | 2.42 ± 0.28 | 2.6 ± 0.21 | – | –
77 | CSSKRSSYPVMGFEFQVRVCDSCY [WDFY1] | 2.66 ± 0.9 | 2.32 ± 0.23 | – | –
78 | CSSSNLAGNDDSFGSLPSPKELSS [DLC1] | 4.37 ± 0.15 | 4.37 ± 0.27 | – | –
79 | CTPGGTTIYGLHALEQGGLRAATM [PYCR3] | 2.36 ± 0.73 | 2.25 ± 0.72 | – | –
80 | CTQVTQDGDIPNIPAEENASTSTP [FAM189A2] | 5.65 ± 0.2 | 5.5 ± 0.33 | – | –
81 | CVLYACFILGRLCVPVFANMSREP [SOAT2] | 3 ± 0.36 | 3.31 ± 0.21 | – | –
82 | CVTPNGRPISGTAVAHKTPRCPGS [SMOC2] | 2.98 ± 0.67 | 3.89 ± 0.34 | – | –
83 | DAAIHGFRETEKSRWSEASRAILQ [ALKBH7] | 3.8 ± 0.51 | 3.83 ± 0.66 | – | –
84 | DCSDILRLIKELAKYEYMEEQVIL [SAT1] | 1.95 ± 0.51 | 2.23 ± 0.1 | – | –
85 | DDMPIGRNVLELNDVRQSANYTCV [PTPRD] | 3.72 ± 0.28 | 3.77 ± 0.44 | – | –
86 | DDNSCEDLEEERREEEEKTPPETK [PCMTD2] | 5.73 ± 0.34 | 5.54 ± 0.25 | – | –
87 | DELQQSFQKSHNSLQRWEHLKKVA [PRIM1] | 3.76 ± 0.38 | 3.88 ± 0.45 | – | –
88 | DEPYEKVVDRIQSSGKNVTLLVCG [PDZK1] | – | 3.5 ± 0.36 | – | –
89 | DEYQYSFWDLFRSKDNMRTRIMIG [SLC2A12] | 1.85 ± 0.38 | 2.14 ± 0.38 | – | –
